Assay [1] addresses T1, Human MTR4 (SKIV2L2, DOB1) (human, UniProt P42285 1-1042).
T1 sequence: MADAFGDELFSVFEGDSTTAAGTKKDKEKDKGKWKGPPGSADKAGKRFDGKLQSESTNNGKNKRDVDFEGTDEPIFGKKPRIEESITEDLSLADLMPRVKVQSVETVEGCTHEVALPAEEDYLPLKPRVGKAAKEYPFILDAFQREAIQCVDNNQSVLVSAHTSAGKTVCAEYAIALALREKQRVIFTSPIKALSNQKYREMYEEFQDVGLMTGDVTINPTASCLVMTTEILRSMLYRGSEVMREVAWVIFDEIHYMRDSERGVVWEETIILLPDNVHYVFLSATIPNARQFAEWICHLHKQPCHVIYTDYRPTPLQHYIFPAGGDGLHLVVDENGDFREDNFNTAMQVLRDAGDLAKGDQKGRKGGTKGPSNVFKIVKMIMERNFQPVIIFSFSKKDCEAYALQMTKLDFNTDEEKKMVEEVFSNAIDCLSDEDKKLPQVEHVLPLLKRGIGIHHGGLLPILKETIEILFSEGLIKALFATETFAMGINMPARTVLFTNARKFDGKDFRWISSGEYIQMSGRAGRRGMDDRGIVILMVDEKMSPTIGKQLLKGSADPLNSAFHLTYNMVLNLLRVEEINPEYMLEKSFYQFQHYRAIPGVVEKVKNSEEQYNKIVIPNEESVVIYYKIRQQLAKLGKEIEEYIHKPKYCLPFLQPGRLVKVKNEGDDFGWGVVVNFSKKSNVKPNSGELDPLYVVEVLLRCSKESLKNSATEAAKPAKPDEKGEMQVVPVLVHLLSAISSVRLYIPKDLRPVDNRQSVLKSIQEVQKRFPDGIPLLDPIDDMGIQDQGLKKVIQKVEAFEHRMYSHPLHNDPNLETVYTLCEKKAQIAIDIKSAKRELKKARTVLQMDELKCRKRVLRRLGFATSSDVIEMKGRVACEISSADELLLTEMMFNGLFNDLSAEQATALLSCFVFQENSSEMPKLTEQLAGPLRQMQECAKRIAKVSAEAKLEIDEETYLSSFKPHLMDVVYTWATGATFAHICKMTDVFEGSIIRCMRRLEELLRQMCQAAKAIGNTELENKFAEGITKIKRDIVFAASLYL
Briefly: cryo-EM structure.

Assay [2] addresses EXOSC3 (human, UniProt Q9NQT5 1-275). Briefly: cryo-EM structure.

This is an account of results in paper PMC6124691 (Cell, 2018).

Chain of EXOSC3 (Q9NQT5 whole entry): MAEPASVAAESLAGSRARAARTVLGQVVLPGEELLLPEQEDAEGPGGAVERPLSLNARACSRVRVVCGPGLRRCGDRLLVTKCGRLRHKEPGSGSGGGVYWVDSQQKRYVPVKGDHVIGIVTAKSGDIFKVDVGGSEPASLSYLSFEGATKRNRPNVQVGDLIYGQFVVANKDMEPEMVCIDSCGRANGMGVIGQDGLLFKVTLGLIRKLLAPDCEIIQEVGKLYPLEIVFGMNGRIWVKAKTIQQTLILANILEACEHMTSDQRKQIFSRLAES

B1: Human M-Phase-Phosphoprotein 6 (MPP6) (natural protein)
chain: MAAERKTRLSKNLLRMKFMQRGLDSETKKQLEEEEKKIISEEHWYLDLPELKEKESFIIEEQSFLLCEDLLYGRMSFRGFNPEVEKLMLQMNAKHKAEEVEDETVELDVSDEEMARRYETLVGTIGKKFARKRDHANYEEDENGDITPIKAKKMFLKPQD
On to B1, for which the binding result in assay [1] and in assay [2] was “binds” in each case.
